Target: the molecule itself
Assay: non-reducing SDS-PAGE

B1: His-tagged Snapin wild-type (natural protein, UniProt Q9Z266 1-136, looked up)
chain: MAAAGSAAVSGAGTPVAGPTGRDLFAEGLLEFLRPAVQQLDSHVHAVRESQVELREQIDNLATELCRINEDQKVALDLDPYVKKLLNARRRVVLVNNILQNAQERLRRLNHSVAKETARRRAMLDSGVYPPGSPSK
stoichiometry N: 2
